Experimental data published in patent US20160024208A1.

Experiments:
[1] = target: full-length human Nav1.7 fused at its N-terminus to GFP, expressed in HEK293 cells (human) (UniProt Q15858); experiment: cell-based or functional assay
[2] = target: full-length human Nav1.7 fused at its N-terminus to GFP, expressed in HEK293 cells (human) (UniProt Q15858); experiment: flow cytometry; % stained hNav1.7-GFP-HEK293 minus parental HEK293
[3] = target: full-length human Nav1.7 fused at its N-terminus to GFP, expressed in HEK293 cells (human) (UniProt Q15858); experiment: flow cytometry on Nav1.7-GFP-HEK293, antibody 3.3 nM preincubated with 3.3 uM EC 3-1 peptide as competitor
[4] = target: full-length human Nav1.7 fused at its N-terminus to GFP, expressed in HEK293 cells (human) (UniProt Q15858); experiment: flow cytometry on Nav1.7-GFP-HEK293, antibody 3.3 nM
[5] = target: N-term Biotin Nav1.7 (3-3) peptide, mouse (mouse); experiment: ELISA on coated peptide

B1: H4H441B (antibody, V domains shown)
VH: QVQLQQWGAGLLKPSETLSLTCAVYGGSFSGHYWTWIRQPPGKGLEWIGEINHRGNTNYNPSLKSRATISVDTSKNQFSLKLSSVTAADTAVYYCAREGSLAARLWFFDLWGRDTPVTVSS
VL: DIQMTQSPSSLSASVGDRGTVTCRASQNIRTYLNWYQQKPGKAPKLLIYAASSLQSGVPSRFSGSGSGTDFTLTISSLQPEDFATYYCQQSYGTPYTFGQGTKVEIKR
Current blocking (Average % inhibition), IonWorks Quattro, 223 nM antibody [1]: 81%

B2: H4H382B (antibody, V domains shown)
VH: EVQLVQSGGGVVQPGRSLRLSCEASGFTFSSYGMHWVRQAPGKGLEWVAVISYDGSNKHYTDSVKGRFTISRDNSKNTLYLQMNSLRAEDTAVYFCAQSRGYSYGLGYWGQGTLVTVSS
VL: DIQMTQSPDSLAVSLGERATINCKSSQSVLSSSNNENYLVWYQQKPGQPPKLLIYWASTREPGVPDRFSGGGSGTDFTLTISSLQAEDVAVYYCQQYHSIPYTFGQGTKVEIKR
Current blocking (Average % inhibition), IonWorks Quattro, 223 nM antibody [1]: -6% | % Binding Nav1.7 [2]: 13%

B3: H4H443B (antibody, V domains shown)
VH: QVQLVESGGGLVQPGRSLRLSCAASGFTFDDYAMHWVRQVPGKGLEWVSGINWNSGSIGYADSVKGRFTISRDNAKNSLFLQMNSLRAEDTALYYCAKDIEYYDILTGYYSYYIMDVWGQGTTVTVSS
VL: DIQMTQSPSFLSASVGDRVTITCWASQGISSYLAWYQQKPGKAPKLLIYASSTLQSGVPSRFSGSGSGTEFTLTISSLQPEDFATYYCQQFNSYPPTFGQGTKVEIKR
% Binding Nav1.7 + 1000x Peptide (Competition Binding) [3]: 5.1% | % Binding Nav1.7 (Stable Line) [4]: 10.1% | % Binding Nav1.7 [2]: 10.1%

B4: H4H448B (antibody, V domains shown)
VH: EVQLVQSGGGLVQPGRSLRLSCAASGFTFDDYAMHWVRQAPGKGLEWVSGISWNSGSIGYADSVKGRFTISRDNAKNSLYLQMNSLRAEDTALYYCAKDIEYYDILTGYYSYYIMDVWGQGTTVTVSS
VL: DIRMTQSPSSLSASVGDRGTITCRASQNINSYLNWYQLKPGKAPKLLIFAASSLQSGVPSRFSGSGSGTDFTLTISSLQPEDFATYYCQQSYSSPFTFGQGTKVEIKR
% Binding Nav1.7 + 1000x Peptide (Competition Binding) [3]: 5.8% | % Binding Nav1.7 (Stable Line) [4]: 9.2% | % Binding Nav1.7 [2]: 9.2%

B5: H4H471B (antibody, V domains shown)
VH: EVQLVESGGGLVKPGGSLRLSCAASGVTFSDYYMTWIRQAPGKGLEWVSYISTDGRTIYYADSVKGRFTISRDNAKNSLYLQMNNLRAEDTAVYYCARGVDSDDYEDFYSYYDMDVWGQGTTVTVSS
VL: DIQMTQSPSSLSASVGDRVTITCRASQGISNYLAWFQQKPGKAPKSLIYAASSLQGGVPSRFSGSGSGTDFTLTISSLQPEDFATYYCQQYNSYPLTFGGGTKVEIKR
OD450 [5]: < 0.2 od
